A protein production outcome set (Wang et al. 2014)

Test: label from the status in PepcDB records
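Further: failed if final PepcDB status was selected cloned or expressed and not failed if soluble or beyond.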

Protein production, not failed:
MASYHVSHDSYQSPGPSPLYQPIIEAPPPPYPPTRTRYQDYYGGYGQPHPPPLRPYRSDHEYYGDGEYVGCFPFLRSCLTTLCCCWFVEQCCFRSRY, MATAVKLSGISKTFGSLKANDNVSLSIEAGSIHALVGENGAGKSTLSNIIYGLLHPDSGTIEIDGKAVKFSSVRQAIEAGIGMVHQHFMLVPTLSVTENIILGKEESRLALPTRRIGKEIRQLSQQHGLEVDPDALVSTLSVGEQQRVEILKLLYRRAKLLILDEPTAVLSPPETARLFATLRSLAAEGRTVLLITHKLDEVLTVSDSVSVMRKGSLVGTVPTTSTSKEDLARMMVGRDVLLRTANAPQTPGKTVLSIDKLTYRSPLGIDKLTGLTLHVRAGEIYGIAGVEGNGQSELLSLLWGTFDRSGKTGGSITIDAQETLGKNPSEIAALGVSMIPEDRHKSAIIAEYGIEENLILGRHREKAFHRGIGFDRDAVHKNATAMIEQYDIRCAAGTNPPIASLSGGNQQKIVVAREMERPQLKLLVLAQPTRGVDIGAIEQIHKRIIDARKSGLAILLISSELEEIVALSTRIGCLYKGAIRHEFSETEVWRGRDHESGFEKEIGMHITLEHHHHHH, MATKLVIAIVQDKDANYLSDQFIDQNVRATKLSTTGGFLQSGNTTFMIGIEEERVPEVLEIIKKASHTREEFMTPSVNMDVNMEGTTAYPIKVQVGGATVLVLPVDQFERF, MATLGANASLYSEQHRITYYECDRTGRATLTTLIDIAVLASEDQSDALGLTTEMVQSHGVGWVVTQYAIDITRMPRQDEVVTIAVRGSAYNPYFAYREFWIRDADGQQLAYITSIWVMMSQTTRRIVKILPELVAPYQSEVVKRIPRLPRPISFEATDTTITKPYHVRFFDIDPNRHVNNAHYFDWLVDTLPATFLLQHDLVHVDVRYENEVKYGQTVTAHANILPSEVADQVTTSHLIEVDDEKCCEVTIQWRTLPEPIQ, MATLTEDDVLEQLDAQDNLFSFMKTAHSILLQGIRQFLPSLFVDNDEEIVEYAVKPLLAQSGPLDDIDVALRLIYALGKMDKWLYADITHFSQYWHYLNEQDETPGFADDITWDFISNVNSITRNATLYDALKAMKFADFAVWSEARFSGMVKTALTLAVTTTLKELTP

Protein production, failed:
MASSEGLASVDPWSFRQNFNIDSWLLSDSFSHDSDILAKALHRSISTSTESSPLSPSSFFDSSTAAVDFSPPQTLSNVSFGSDPEIPAASALGLGKRKRGPGVSGGKQTKRRSRVSNKKSQTTFITADAANFRQMVQQVTGAKFLGSSNSIFAPIVKPEPHRLASRLPPSCGNLDRSSAVPTLDTSSFLSNHHQENIITDLGAPTGSFHHQSSAGTTTANVGGGSSAVELDSYPSFPTLESWKVM, MASSLTKDSVTPGTPGTEKTFFGHPRGLATLFMTEMWERFSYYGMRALLPLYLVAPGGLGLGAGTATAIYSVYLSLVYLLTMPGGWFGDRVWGPRKTVAIAGGVIMLGHLTLALPSSGTFYAGLGLVAIGSGLLKANISTMVGQLYDGPDDPRRDGGFTVFYMGINLGAFAAPLTIGTIGENVNWHLGFALAAVGMGLGVLQFLIGSRHLAPHSSAVPKPLSVEEKTSTLRKAAFWAALAVVFYAIVGFSGHYTLNWILVPLTLLGVIIPVLVLTNIKRDKSLDRAEQSKMSAYIWFFVAAAVFWMIYDQGGSTLSLFADSSADNSVFGWSFPVSWYQSVNPVIIMALAPVFATVWLALNRRGKEPSTVVKFCGGLVLVGASFFLFLAPLGIAEGGHKAAAMWLVAIYFVQTCGELMLSPVGLSVTTKMAPVKYASQMMGVWFLAVTAGDATTGLLSIAGVDLNKTGIVAAEATLAVVAGVAIWMYRKRVKELMGDVR, MASSTLFKLNSQTFKALNPSPPSLSPPNSRIFHLHFSKSLSQQHSKLNHKSTTTRLFAPLCSSLPSPSSSSPPLSKEEAINQAKTCLLSCLIKPLNNPKLASPKLRKLKQPRFRLEIPILDDDSPSSLSQLAFSIFHDLPISRRGSNVKLLFLWPNPSFIDPAVKAFRSDSIHHIAMSPVSDSLKTALRSADVAIFMAPEKSQLEDVKTASEAFSTKPVVMINPRWLFEEEKSFGDGFIGSFEVIYAFTGLEVRGVFSKRKGVIFKCVRDGVVSGERWNVLVEEEEGNGTLKVVSQFNSRPSIEEVELVLYNLMAMNSPITKSAKFLSDLVSNITGKK, MASTDYHVDLTNCDREPIHIPGYIQPHGCLIACDNAMRMVLRHSENCGELLGLEGDLNGRTAEDVLGKKLVHDLRNALTVTGRTTRPAMLPAMETSDGRSFDISLHRYKSTTIIEFEPSGSDAQPLGTARKMVDRIREADSVESLISRTTRLVKATLGYDRVMIYRFQEDGAGKVVSEAKQPELESFLGQYFPASDIPQQARALYLKNTLRIISDASGTRIPVLPAVDVSGEPLDLSYAHLRSVSPIHCEYLRNMGVAASMSISVIVDGALWGLIACHHYSPRVLSMPVRIAAEMFGEFFSMHLQVLKQKRRLDTINHAHAALDRFLRLAAHHANIEELLVDSFQDFADLMPCDGVGLWVGNNWHGHGATPPHDAIPRLARFVASASEGRVWATHALSQAIPEAEIYAGTAAGMLAIPLSQVKSDYLLFFRKEIVQNLNWAGNPEKSYETGPMGDRLTPRKSFAIWKETVRLQAQPWSEADREIAEAARIALVEVAFHHSELMAGERERAEVRQRMLNEELNHRVKNVLAIIKSLVGNPSQEGKTLQEYVTALKGRIQALSFAHDQIIRGEGGGALRDLLEAELSPHRSPETTVKLEGPQITLDSRAFSVMALVLHELATNAAKYGALSQNGGQLHVRWDVNENRDCEISWRETLLTTLPAPSRAGFGTALISRSIPYDLGGRSTIRYLPNGLEAEILLPFRHVSSVSAAFETKTEAETLPQPRRYNREEPLKVLLVEDQMLIAMDVENMLEDNGIKAIETATSSAMAIEKLKTYLPDVAILDINLGSDTSIPVARELHRRGIPFLFATGYADGSMVPDEFGAVPVIRKPYDEDALMAGIGVLVGDTERV, MASVNSPIRTFLKPLLFKLFGKNVYARFQFYAKIKDIDKRLVEEKEMELLPYFLNKDSNSIDVGANYAYYTVGMSKLSKKVFAYEPIPFTYKVCKMLLKHYNCANVDLFAQGVGEKNEIKRFNVPVVDFGGISAGQAHMADRNNELKGKEQHYQFSKNEAYDCTVVSLDAAITDITPISFVKMDIEGAEYFALKGMQQLLLKHKPVILIEINPFFLTGFDIKENDLKNLIASHAYKTYIYSAELKKLQAFECAYFESNYILIPEEKIAQFNAIIE, MATAALSAARPNRLSSASSDVPLHPLYLPTKLQFPSRKTQLWRSAAILLPTRRRCAPPRASSRADDSPPFDMSVETALKVLGVSEGASFDEILRAKKSILASRKDDPNAISQAEAAYDMLLMQSLNQRRAGKVVSNNIRYADVKSSNPLGTSTVTQWMKNPPVSVDMPSTSDLGIQAGVYGAMMVLTYVNGSSFESSGMPYAGADVPGLILASSFGASLYFMTKKKVKLGKAAALTAGGLVAGAVVGSAIETWLHVDVVPFLGLHSPAAVVSEFIVFSQFLVSLCLR, MATAEAQIGVNRNLQKQDLSNLDVSKLTPLSPEVISRQATINIGTIGHVAHGKSTVVKAISGVQTVRFKNELERNITIKLERLSEKKIKNLLTSKQQRQQYEIKQRSMLRHLAELRRHSRFRRLCTKPASSSMPASTSSVDRRTTRRSTSQTSLSPSNSSGYGSVFGCEEHDVDKIPSLNGFAKLKRRRSSCVGAPTPNSKRSKNNMGVIAKRPPKGEYVVERIECVEMDQYQPVFFVKWLGYHDSENTWESLANVADCAEMEKFVERHQQLYEIYIAKITTELEKQLEALPLMENITVAEVDAYEPLNLQIDLILLAQYRAAGSRSQREPQKIGERALKSMQIKRAQFVRRKQLADLALFEKRMNHVEKPSPPIRVENNIDLDTIDSNFMYIHDNIIGKDVPKPEAGIVGCKCTEDTEECTASTKCCARFAGELFAYERSTRRLRLRPGSAIYECNSRCSCDSSCSNRLVQHGRQVPLVLFKTANGSGWGVRAATALRKGEFVCEYIGEIITSDEANERGKAYDDNGRTYLFDLDYNTAQDSEYTIDAANYGNISHFINHSCDPNLAVFPCWIEHLNVALPHLVFFTLRPIKAGEELSFDYIRADNEDVPYENLSTAVRVECRCGADNCRKVLF, MATESSSPSSVRKVVVHLRATGGAPILKQSKFKIPGTDKFAKVIDFLRRQLHSDSLFVYVNSAFSPNPDESVIDLYNNFGFDGKLVVNYACSMAWG, MATHNIHMDCAVNPSVRWRSRPVSTQVPRTRRFAAVVGPIAFSTLGIVLSLFAAVAVDAQPRTPGRVAAVFPPWWDDARVVASAGTAGDIAGAGGASFIVILRGDPATLNQRARTAGAWLLLDPALAGACARPASEPVSS, MATIAAADRTVTSVRPAELGVKVVIVMALLLIVMLIFAYKVVSLHNMKDEPFWAAYGLIITAFIFTRFGLAALYRPPRRDTGNYWPVVAIIVPAYNEPDIARTLLHCVGVDYPRELLRVVVVDDKSSDDTLRRITDFAAEHPNLTVIPHEVNGGKRRAMATGMAAADDADLFVFIDSDSQVTRDAIRVIASYFADSSVGAVCGHTDVTNISHNILTRMQAMQYYIAFRIYKSAEALFGSVTCCSGCFSAYRADAVRPVADKWLNQTFLGRPSTFGDDRSLTNYLLRDWRVLYAPDAQAYTNVPEHLKQFLRQQLRWKKSWLREAPRAMCAVRRKNPVMVVMFALSIVLPLIAPQVVMRAFVVQPHFISQLPFWYFGGVAAIAVIYGLFYRLHRPVKRWYQGIFFTMFYTIILVLQMPYAMVTIRDSKWGTR, MATIEKRGSSYRARVTIYQHGKRDYLTKTFKTENEAKVWGTTLELEKAKGKAIAHQNTLFKDFYYLYVHTIKVNDVRKATFNNYLKAGLVINNLFPTAKLGKLDDVQMQKILDKYGETHSKKTVVELLKKIRTALRYAYAKGYIYNDFASLLKAHGKELPKRNKALSMSDLTKLKHYLLEHTDDEFNLMVLLEISTGLRRGEILGIKPEDVHYDGQYYCVEVRRSISPTTDDTKLKTKHSRRSVTIPKDVYDLLKTIPSKASGYLFDWFSFKQSELLKKLLKKIGIPSTTFHGLRDTHASFLFSNNIPLSYVSRRLGHDSILTTEKYYLELMPEKKHSQDANALNLLASL, MATIRKLRGRWQAQVRRRGVPPRAKSFDTKTAAERWARDLEAEADRSGWVADTRAAEKTTLGELLSRYANEVTPAKRGAVSEKARINSIVRCPISHRTLAKLTSSDVAGYRDERLKTVAPATVVRELNTISHAIEVATREWGLWVPRNPVKLVRRPPVPRGRTRRLKEGEEQRLLDACDRGRTPLLKPLIILAIETGMRRGELLDLRWEHIDLKRGVAHLPLTKNGDSRDVPLSCRAVQTLQELRSAGVRHDRVFSMTGNSVRLAFEHLRVRAGMSDLHFHDLRHEAISRLFEKGLNIAEVSAISGHRELKMLQRYTHLRAVDLVARLG, MATKGLKMVTLALLDDKGVIVKGETGLSTNGVFPITDEMLGTKTANITNLSSAPTMIYGNDGQVDADIAKGTPSVAFAFNGLPVDIKNKLLGRVNDTKGGYTQGSIPKVAVLIQTTTIGTAKPQYVAFAAGKMNETAMNLQTNTNAVVRVDDALTFTAFSVSRWGGEAVKFFDGGDSKFTEDVMMKDVFNGYAGVGV, MATLDERARPWARKSRWNGYAYEFLLFGLKQAWACLFGGLMLALLVGTKLFWPEAAPIARYDFLVVAAIAIQASLLALKLERWDEALVIFMFHVVGTIMELFKTAHGSWIYPEDSVLRIGGVPLFTGFMYACVGSYIARIWRLFDITFIRYPPFWTTHILAVLIYANFFTHHYMIDIRVGLFALSVLLFGRTWFVFTPDQTARRMPMLMGAVLVSLFIWFAENLGTFAGAWIYPNQADGWQMVPFEKMGAWYLLMLISFVLVTLVHPPVHACVARIRQGIWRAA, MATLSFGIAAAATTVRTIPRFNSRRSKITCEWDPKGVLGPAQTGHIARLEFKRRLERDSEAREAFQKQLREEKERRQALRQSRVVPDTAAELIEYFLDTEAQEIEYEIARLRGRLNDEFFAQIRLEIGQIRFAVTKTADIEDRLIELETLQKALEEGIEAYDKMQNELMTATNSLTKLLTSTDIKTTLLDMVEKNQINRSLLALLDENIANAYKGNQKEAGDYMEKIRSSVLKYLTV
